Results on 27 sequences are retold here after a protein production outcome set (Wang et al. 2014).

A short description of the series: label from the status in PepcDB records.

With “SNEELETAKEEMQSVNEELQTINSELHGKNELLLQANNDLQNLLDNTQIATIFLDDDLTVRNFTPAAREVFSLRDGDRGRPVTEITSLLSYDKLCEDVRTVQRTLGVVESQLDLEDESATYIMRIRPYRTVANVISGVVITFSNITEQKQQHDHLQVLMGELQHRTNNVFAVILAIARQTVRNS”, the protein production result is given as “failed”.

As to “SNGTPLMTPTELIERQASGEQLQIIDTRSKKQYEISCVKGAIHIPLAEIRDRVAELDKNVTTITYCNKGVTGNAAQNILLNEGFKEVYNLSGGNKNY”, the protein production entry is given as “failed”.

As to “SNMQLDTLRRIVQEINSSVSLHDSLDIMVNQVADAMKVDVCSIYLLDERNQRYLLMASKGLNPESVGHVSLQLSEGLVGLVGQREEIVNLENASKHERFAYLPETGEEIYNSFLGVPVMYRRKVMGVLVVQNKQPQDFSEAAESFLVTLCAQLSGVIAHAHAVGNIDVFRKPSNGA”, the protein production result was “not failed”.

Turning to “SPEHGQAGRKIGEEGIVLLQNKDNVLPIDLKKARKIAVIGENAIKMMTVGGGSSSLKVKYEISPLDGLKNRVGSQAEVLYVRGYVGDPTGEYNGVQTGQDLKDDRSEDELLAEAVEVSKDADYVIFFGGLNKSNHQDCEDSDRASLGLPYAQDRVIGELAKVNKNLIVVNISGNAVAMPWVNEVPAIVQGWFLGSEAGTALASVLLGDANPSGKLPFTFPARLEDVGAHKLGEYPGNKEELAHSKNNGDTINEIYREDIFVGYRWADKEKIKPLFPFGHGLSYTTF”, the protein production entry was “failed”.

As to “SPEYGMPSVTFGSVHPSDVLDMPVDPNEPTYCLCHQVSYGEMIGCDNPDCSIEWFHFASCGADNQPRGKWXFPRCSQE”, the protein production entry is recorded as “not failed”.

Regarding “SPGSAAKGSELSERIESFVETLKRGGGPRSSEEMARETLGLLRQIITDHRWSNAGELMELIRREGRRMTAAQPSETTVGNMVRRVLKIIREEYGRLHGRTDESDQQESLHKLLTSGGLNEDFSFHYAQLQSNIIEAINELLVELEGTMENIAAQALEHIHSNEVIMTIGFSRTVEAFLKEAARKRKFHVIVAECAPFCQGHEMAVNLSKAGIETTVMTDAAIFAVMSRVNKVIIGTKTILANGALRAVTGTHTLALAAKHHSTPLIVCAPMFKLSPQFPNEEDSFHKFVAPEEVLPFTEGDILEKVSVHCPVFDYVPPELITLFISNIGGNAPSYIYRLMSELYHPDDHVL”, the protein production result is “failed”.

For the sequence “SPLGQIQLTIRHSSQRNKLIVVVHACRNLIAFSEDGSDPYVRMYLLPDKRRSGRRKTHVSKKTLNPVFDQSFDFSVSLPEVQRRTLDVAVKNSGGFLSKDKGLLGKVLVALASEELAKGWTQWYDLTED”, the protein production entry is reported as “not failed”.

Regarding “SPMANSGPLCCTICHERLEDTHFVQCPSVPSHKFCFPCSRESIKAQGATGEVYCPSGEKCPLVGSNVPWAFMQGEIATIL”, the protein production entry is recorded as “not failed”.

Consider “SPNPPKLTKQMNAIIDTVINYKDSSGRQLSEVFIQLPSRKELPEYYELIRKPVDFKKIKERIRNHKYRSLGDLEKDVMLLCHNAQTFNLEGSQIYEDSIVLQSVFKSARQ”, for which the protein production entry is listed as “not failed”.

For “SQEIVAGELERCFLAMPESVLPIVTMEERNDLCRRAGHLSGFTHTASLESSLGGTVTFLLNRNFIRIQTSTVGEVFMRILPFSDSSSVICVVTTVLHPVADSRIDFYTTEWKPLKTDRFWQQPRIEDFFLPHTDRQSYAYQAIYASLTPSYMQVSLSEESDTLSIRQTVTETLAEEEKPLAAIFLSPEPLVYRWQSGRFVRQVR”, the protein production result was “not failed”.

For “SQELTLSPGPAKLTPTLDPTHRMELILSTSPAELTLDPACQPKLPLDSTCQPEMTFNPGPTELTLDPEHQPEETPAPSLAELTLEPVHRRPELLDACADLINDQWPRSRTSRLHSLGQSSDAFPLCLMLLSPHPTLEAAPVVVGHARLSRVLNQPQSLLVETVVVARALRGRGFGRRLMEGLEVFARARGFRKLHLTTHDQVHFYTHLGYQLGEPVQGLVFTSRRLPATLLNAFPTAPSPRPPRKAPNLTAQAAPRGPKGPPLPPPPPLPECLTISPPVPSGPPSKSLLETQYQNVRGRPIFWMEKDI”, the protein production result is listed as “not failed”.

In the case of “SQGLDTLLRDLTDRAVVQVPGAVACSVTVRRADRLMTLAGSTGLPSGLDLRQYENGSGPCVDAAESGDAQYCADLAEETRWPAYTEYALATGVRCVLALPLPIEGETGAALNLYGLVPGSLVQGLDAARAFAERAADAVNEALRIERRQASAADVRTALLSRSVIDQAVGMLMARERI”, the protein production entry is listed as “not failed”.

With “SQPQQGKQYEVLPVSLQEYNLAPLTEAFALTCGHCRSMEEFVPQIESLTEQKVEKMHVTFNESAQISAIIFYTAVMQLDATPDKAFMADLFAAVQMGADATAEERQQAVEKAFESRNLISPYHLDEAQQEKLFEYITKAESITTRGQINSVPAFIVNGKYQVITGGHDSVEAMAETINYLLKQ”, the protein production entry is “not failed”.

For “SRKRLSAPELRLSLTKGPGNDGASPTQSAPSSPDGSSDLEIDELETPSDSEQLDSGHEFEWEDELPRAEGLGTSETAERLGRGCMWDVTGEDGHHWRVFRMGPREQRVDMTVIEPYKKVLSHGGYHGDGLNAVILFASCYLPRSSIPNYTYVMEHLFRYMVGTLELLVAENYLLVHLSGGTSRAQVPPLSWIRQCYRTLDRRLRKNLRALVVVHATWYVKAFLALLRPFISSKFTRKIRFLDSLGELAQLISLDQVHIPEAVRQLDRDLHGSGGT”, the protein production entry was “failed”.

With “SSALSRNGSFITKEKKDTVLRQVRLDPCDLQPIFDDMLHFLNPEELRVIEEIPQAEDKLDRLFEIIGVKSQEASQTLLDSVYSHLPDLL”, the protein production result is listed as “not failed”.

For “SSETPAQCSIKQERISYTPPESPVPSYASSTPLHVPVPRALRMEEDSIRLPAHLRLQPIYWSRDDVAQWLKWAENEFSLRPIDSNTFEMNGKALLLLTKEDFRYRSPHSGDVLYELLQHILKQRKPRILFSPFFHPGNSIHTQPEVILHQNHEEDNCVQRTPRPSVDNVHHNPPTIELLHRSRSPITTNHRPSPDPEQRPLRSPLDNMIRRLSPAERAQGPRPHQENNHQESYPLSVSPMENNHCPASSESHPKPSSPRQESTRVIQLMPSPIMHPLILNPRHSVDFKQSRLSEDGLHREGKPINLSHREDLAYMNHIMVSVSPPEEHAMPIGRIADCRLLWDYVYQLLSDSRYENFIRWEDKESKIFRIVDPNGLARLWGNHKNRTNMTYEKMSRALRHYYKLNIIRKEPGQRLLFRFMKTPDEIMSGRTDRLEHLESQELDEQIYQEDEC”, the protein production entry was “not failed”.

Turning to “SSKPPPKPVKPGEGGQVKVFRALYTFEPRTPDELYFEEGDIIYITDMSDTNWWKGTSKGRTGLIPSNYVAEQAESIDNPLHEAAKRGNLSWLRECLDNRVGVNGLDKAGSTALYWACHGGHKDIVEMLFTQPNIELNQQNKLGDTALHAAAWKGYADIVQLFLAKGARTDLRNIEKKLAFDMATNAACASLLKKKQGTDAVRTLSNAEDYLDDEDSD”, the protein production entry is listed as “failed”.

On to “SSKVIIPKIVGHRGVGKEGLAPENTLRSFVLCMERNIPYIETDLRVCKTGEIVLFHGTPEGTIPFYKDGTSRIGDLSLEELKRLDVGGGHTIPSLEELFVAIEEQKFNLKLNLELKGEEWKRKESGDHQRLLLLVEKYHMQERVDYCSFHHEALAHLKALCPDVKITYLFNYMGQPTPLDFVEQACYGDANGVSMLFHYLTKEQVCTAHEKGLSVTVWMPWIFDDSEEDWKKCLELQVDLICSNYPFGLMNFLSNISE”, for which the protein production result is given as “not failed”.

Regarding “SSLICSISNEVPEHPCVSPVSNHVYERRLIEKYIAENGTDPINNQPLSEEQLIDIKVAHPIRPKPPSATSIPAILKALQDEWDAVMLHSFTLRQQLQTTRQELSHALYQHDAACRVIARLTKEVTAAREALATLKPQAGLIVPQAVPSSQPSVVGAGEPMDLGELVGMTPEIIQKLQDKATVLTTERKKRGKTVPEELVKPEELSKYRQVASHVGLHSASIPGILALDLCPSDTNKILTGGADKNVVVFDKSSEQILATLKGHTKKVTSVVFHPSQDLVFSASPDATIRIWSVPNASCVQVVRAHESAVTGLSLHATGDYLLSSSDDQYWAFSDIQTGRVLTKVTDETSGCSLTCAQFHPDGLIFGTGTMDSQIKIWDLKERTNVANFPGHSGPITSIAFSENGYYLATAADDSSVKLWDLRKLKNFKTLQLDNNFEVKSLIFDQSGTYLALGGTDVQIYICKQWTEILHFTEHSGLTTGVAFGHHAKFIASTGMDRSLKFYSL”, the protein production result is “not failed”.

For the sequence “SSPQDTCCPPDSWPALKVDYKPKGKLEDIGKGLKAYVVGNGPRAVIALNDVFGIESGHSKEICDAIADKGFTVVFPDVFRGKPLQVSDMSKLFDELPGWAKQFDYEPALRKDVVEVILPYLHDKLGFKSNDQIALAGFCWGAFMLFHLAGDTKLPGGPFACGVSFHPSVQIEGVFQRDPLQLIDRATCPQLLLPSAGEPDYMKEEGDAIKKLRAKPFGASCGVKTFPSMQHGWVNRGDRNDPQVVKEAQEALQLAVDFMMRHTKPKA”, the protein production result is “not failed”.

As for “SSRKSGIGHEASLKRKAEEKLESYRKKIHMKNQAEEKAAEQFRMRLKNKQDEMKLEGDLRRSQRACQQLDVQKNIQVPREAWYWLRLEEETEEDEEEKEQDEDEYKSEDLSVLEKLQILTSYLREEHLYCIWCGTAYEDKEDLSSNCPGPTSADHD”, the protein production entry is reported as “failed”.

In the case of “SSSQDVLIHSDDPCHPANLICTLCKQFFHNNWCTGTGGGISIKDPNTNYYYLAPSGVQKEKMIPEDLFVMDAQTLEYLRSPKLYKPSACTPLFLACYQKKNAGAIIHTHSQNAVICSLLFGDEFRIANIEQIKAIPSGKVDPVTKKPMALSFFDTLKIPIIENMAHEDELIDDLHKTFKDYPDTCAVIVRRHGIFVWGPTIDKAKIFNEAIDYLMELAIKMYQMGIPPDCGIGEEKKHLKMASP”, the protein production entry is given as “not failed”.

For “STGSATTTPIDSLDDAYITPVQIGTPAQTLNLDFDTGSSDLWVFSSETTASEVDGQTIYTPSKSTTAKLLSGATWSISYGDGSSSSGDVYTDTVSVGGLTVTGQAVESAKKVSSSFTEDSTIDGLLGLAFSTLNTVSPTQQKTFFDNAKASLDSPVFTADLGYHAPGTYNFGFIDTTAYTGSITYTAVSTKQGFWEWTSTGYAVGSGTFKSTSIDGIADTGTTLLYLPATVVSAYWAQVSGAKSSSSVGGYVFPCSATLPSFTFGVGSARIVIPGDYIDFGPISTGSSSCFGGIQSSAGIGINIFGDVALKAAFVVFNGATTPTLGFASK”, the protein production entry was “not failed”.

For the sequence “STMEKSVLGGQDQLRVRVTELEDEVRNLRKINRDLFDFSTRFITRPAK”, the protein production result is reported as “not failed”.

Consider “STNLQEKGLVVSIVDTLMFDTGRAEVKPDFQKKLVEIGEILKTIDNYIRIEGHTDNTPISNSQYASNIELGSARSNNVEHLFIDVSKIPVTQMYTVSYADTRPVADNNSEAGKARNRRVDIVILNSKFNAVEQESSGK”, for which the protein production result is on record as “failed”.

For “SVILFDRTFISPTEISDIYTKDAIGMKKADYLRKKLTSIFPEIEVQNLPDTINISNYLNDSDFDIIIVNSEHFNIKLLSELNDLLYKISTPYMYAWIEGSRGYIGPLIYPPDTSCFNCYLTWRFFGTFMEDKIKAINNYGSSGYIFPLDKIIGALTVLEVCKAIGSLGTPLFNKIILVEVLPTLTIRYIPILKDPKCNVCEG”, the protein production entry was “failed”.

With “TAGKKAAMDRLSTQEGIISALAIDQRGALKKMIKALDVEPTDAQIETFKELVSKELTPYASAILLDPEYGLPAAKARDTEAGLLLAYEKTGYDATTPGRLPDLLADWSVLRLKEEGADAIKFLLYYDVDEDPEINHQKHVFIERLGSECAEEDLPFYLELVSYDAQIADATSLEYAKVKPHKVNEMMKEFSKPQYKVDVLKVEVPVNMNFVEGFAPAETAYTKEEAANYFLEQSQATDLPFIFLSAGVSTELFQETLRFAKEAGSTFNGVLCGRATWKNGVKPFVEAGETAACDWLKTEGRENIESLNEVIAATASSWHAKVQVNE”, the protein production entry was “failed”.
